What was measured:
[1] = target: the molecule itself; experiment: X-ray crystal structure; self-association (homotrimer)
Experimental: The crystals (FIG. 8) were obtained from rhNaglu protein purified from culture media treated with mannosidase-I inhibitor, Kifunensine. Naglu Kif contains identical protein sequences as rhNaglu, but different glycosylation pattern. The crystals acquired of Naglu Kif were grown at pH=7.5 and the structure of Naglu Kif was solved at 2.4 Å resolution by X-ray crystallography. Naglu structure (FIG. 9) is identified as having three distinct domains, a N-terminal domain (Domain-I, aa 24-126) followed by a (a/(3)8 barrel domain containing the catalytic glutamates (Domain-II, aa 127-467) and an all helical C-terminal domain (Domain-III, aa 468-743). Similar domain structure has been observed for another Glycoside Hydrolase family-89 protein, cpGH89, a bacterial homolog of Naglu (Ficko-Blean E, et al., PNAS May 6, 2008 vol. 105 no. 18 6560-6565). The active site is at a cleft between domains II and III and the catalytic residues are identified as E316 and E446 located on domain II.

[2] = target: the molecule itself; experiment: SEC-MALS and analytical ultracentrifugation; self-association (homotrimer)

B1: Naglu-Kif (enzyme)
chain: DEAREAAAVRALVARLLGPGPAADFSVSVERALAAKPGLDTYSLGGGGAARVRVRGSTGVAAAAGLHRYLRDFCGCHVAWSGSQLRLPRPLPAVPGELTEATPNRYRYYQNVCTQSYSFVWWDWARWEREIDWMALNGINLALAWSGQEAIWQRVYLALGLTQAEINEFFTGPAFLAWGRMGNLHTWDGPLPPSWHIKQLYLQHRVLDQMRSFGMTPVLPAFAGHVPEAVTRVFPQVNVTKMGSWGHFNCSYSCSFLLAPEDPIFPIIGSLFLRELIKEFGTDHIYGADTFNEMQPPSSEPSYLAAATTAVYEAMTAVDTEAVWLLQGWLFQHQPQFWGPAQIRAVLGAVPRGRLLVLDLFAESQPVYTRTASFQGQPFIWCMLHNFGGNHGLFGALEAVNGGPEAARLFPNSTMVGTGMAPEGISQNEVVYSLMAELGWRKDPVPDLAAWVTSFAARRYGVSHPDAGAAWRLLLRSVYNCSGEACRGHNRSPLVRRPSLQMNTSIWYNRSDVFEAWRLLLTSAPSLATSPAFRYDLLDLTRQAVQELVSLYYEEARSAYLSKELASLLRAGGVLAYELLPALDEVLASDSRFLLGSWLEQARAAAVSEAEADFYEQNSRYQLTLWGPEGNILDYANKQLAGLVANYYTPRWRLFLEALVDSVAQGIPFQQHQFDKNVFQLEQAFVLSKQRYPSQPRGDTVDLAKKIFLKYYPRWVAGSW
modifications: mostly high mannose glycans (produced with Kifunensine in the medium); N-glycans at N261, N272, N435, N503, N526 and N532 (precursor numbering)
notes: This is the protein that was crystallised (2.4 A)
**Q.** Does B1 bind [1]?
**A.** binds

B2: recombinant human Naglu (enzyme)
chain: B1 chain
modifications: glycosylated; lacks mannose-6-phosphate glycan
notes: also called rhNaglu; alpha-N-acetyl-glucosaminidase
**Q.** Does B2 bind [2]?
**A.** binds

B3: recombinant Naglu-IGFII fusion protein (enzyme)
chain: DEAREAAAVRALVARLLGPGPAADFSVSVERALAAKPGLDTYSLGGGGAARVRVRGSTGVAAAAGLHRYLRDFCGCHVAWSGSQLRLPRPLPAVPGELTEATPNRYRYYQNVCTQSYSFVWWDWARWEREIDWMALNGINLALAWSGQEAIWQRVYLALGLTQAEINEFFTGPAFLAWGRMGNLHTWDGPLPPSWHIKQLYLQHRVLDQMRSFGMTPVLPAFAGHVPEAVTRVFPQVNVTKMGSWGHFNCSYSCSFLLAPEDPIFPIIGSLFLRELIKEFGTDHIYGADTFNEMQPPSSEPSYLAAATTAVYEAMTAVDTEAVWLLQGWLFQHQPQFWGPAQIRAVLGAVPRGRLLVLDLFAESQPVYTRTASFQGQPFIWCMLHNFGGNHGLFGALEAVNGGPEAARLFPNSTMVGTGMAPEGISQNEVVYSLMAELGWRKDPVPDLAAWVTSFAARRYGVSHPDAGAAWRLLLRSVYNCSGEACRGHNRSPLVRRPSLQMNTSIWYNRSDVFEAWRLLLTSAPSLATSPAFRYDLLDLTRQAVQELVSLYYEEARSAYLSKELASLLRAGGVLAYELLPALDEVLASDSRFLLGSWLEQARAAAVSEAEADFYEQNSRYQLTLWGPEGNILDYANKQLAGLVANYYTPRWRLFLEALVDSVAQGIPFQQHQFDKNVFQLEQAFVLSKQRYPSQPRGDTVDLAKKIFLKYYPRWVAGSWGAPGGGGGAAAAAGGGGGGAPGGGGGAAAAAGGGGGGAPGGGGGAAAAAGGGGGGAPLCGGELVDTLQFVCGDRGFYFSRPASRVSRRSRGIVEECCFRSCDLALLETYCATPAKSE
modifications: glycosylated; negative for M6P glycosylation
notes: Secreted from HT1080 cells
**Q.** Does B3 bind [2]?
**A.** binds
